Experimental data as given in patent publication US20230212305A1, “ANTI-ABCG2 ANTIBODIES AND USES THEREOF” (Kenjockety Biotechnology, Inc., priority 2020, published 2023).
Entries after “also recorded” stand apart in the source; their conditions may differ.

Tests used:
[1] = system: cynomolgus ABCG2; experiment: Flow cytometry binding to 293T cells overexpressing cynomolgus ABCG2; design: key to Cynomolgus ABCG2 binding: binding=“+”; non-significant binding=“−”; conditions: for binding to 293 cells overexpressing cynomolgus ABCG2 (cG2): FACS, FIG. 1
cynomolgus ABCG2, sequence (as listed by the source): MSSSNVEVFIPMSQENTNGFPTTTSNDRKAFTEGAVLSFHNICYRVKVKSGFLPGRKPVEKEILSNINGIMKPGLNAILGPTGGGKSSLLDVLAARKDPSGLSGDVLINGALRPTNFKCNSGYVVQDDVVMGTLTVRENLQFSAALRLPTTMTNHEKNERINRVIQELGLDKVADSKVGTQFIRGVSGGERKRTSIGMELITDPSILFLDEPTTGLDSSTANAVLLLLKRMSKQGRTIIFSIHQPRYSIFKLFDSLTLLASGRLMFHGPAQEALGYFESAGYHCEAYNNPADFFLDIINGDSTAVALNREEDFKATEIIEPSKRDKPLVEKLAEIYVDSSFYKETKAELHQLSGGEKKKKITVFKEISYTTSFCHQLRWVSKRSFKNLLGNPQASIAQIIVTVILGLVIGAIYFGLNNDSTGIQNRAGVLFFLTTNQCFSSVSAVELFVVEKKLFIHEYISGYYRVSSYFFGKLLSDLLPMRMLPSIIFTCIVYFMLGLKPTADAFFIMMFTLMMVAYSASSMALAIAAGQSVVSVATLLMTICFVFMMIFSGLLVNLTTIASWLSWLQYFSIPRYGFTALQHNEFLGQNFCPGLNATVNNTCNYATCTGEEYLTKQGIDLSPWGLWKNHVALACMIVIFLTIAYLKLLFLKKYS
Summary of the method: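 293T cells stably overexpressing cynomolgus ABCG2 were incubated on ice for 30 min with antibody at 5 ug/mL or serial dilutions from 100 ug/mL. Bound antibody detected with PE-labelled anti-human IgG F(ab′)2 by flow cytometry; EC50 taken as concentration giving half-maximal response.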

[2] = molecular target: T1, ABCG2 (Homo sapiens, UniProt Q9UNQ0); format: cell-based
T1 construct: expressed in transfected cells
T1 sequence (Q9UNQ0 1-655): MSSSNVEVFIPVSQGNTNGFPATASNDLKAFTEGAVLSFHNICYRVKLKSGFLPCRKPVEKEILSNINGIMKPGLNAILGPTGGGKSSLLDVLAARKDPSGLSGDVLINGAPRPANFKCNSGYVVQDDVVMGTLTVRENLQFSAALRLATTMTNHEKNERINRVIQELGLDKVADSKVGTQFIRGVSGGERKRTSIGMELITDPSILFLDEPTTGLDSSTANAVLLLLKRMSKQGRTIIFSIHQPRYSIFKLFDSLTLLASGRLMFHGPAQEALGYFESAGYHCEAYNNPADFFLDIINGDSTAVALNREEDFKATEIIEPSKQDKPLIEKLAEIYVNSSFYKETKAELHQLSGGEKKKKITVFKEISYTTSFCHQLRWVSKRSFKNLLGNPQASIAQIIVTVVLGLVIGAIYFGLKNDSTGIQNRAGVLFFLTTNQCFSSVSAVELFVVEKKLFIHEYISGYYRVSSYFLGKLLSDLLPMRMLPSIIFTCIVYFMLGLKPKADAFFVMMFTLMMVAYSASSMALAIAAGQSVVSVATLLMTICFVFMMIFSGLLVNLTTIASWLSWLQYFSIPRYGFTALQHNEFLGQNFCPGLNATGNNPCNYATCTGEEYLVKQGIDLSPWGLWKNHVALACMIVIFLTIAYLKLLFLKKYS
Summary of the method: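 293T cells overexpressing ABCG2 (2×10e6 cells/ml, phenol red-free DMEM) treated with antibodies or inhibitors at 1 μM final, then loaded with 2.5 μM mitoxantrone 1 h at 37° C. After washing, mitoxantrone retention read as fluorescence (ex 635, em 647 nm) to measure efflux blockade.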

[3] = system: HEK 293 naïve cells; experiment: FACS binding to HEK 293 naïve cells; design: species or system human; conditions: FIG. 1
[4] = system: 293T_ABCG2_OX cells; format: cell-based, human; conditions: cell killing by topotecan on 293T_ABCG2_OX cells; viability relative to IgG control
Procedure: Cytotoxicity Assays. The effect of antibodies on topotecan cytotoxicity was evaluated on 293T_ABCG2_OX cells, 293T cells stably transfected to express ABCG2. Cells were plated in 0.05 mL of Assay Media (DMEM+10% FBS) at 5000 cells/well in white, flat bottom 96-well tissue culture plates. Topotecan was prepared at 2× final assay concentration by serial dilution from 200 uM in assay media containing test antibodies or control antibodies at 100 ug/mL (2× final concentration), or Fumitremorgin C, a small molecule ABCG2 inhibitor at 20 uM (2× final concentration). An equivalent volume (0.05 mL) of the topotecan/antibody mixture was added to the 293T_ABCG2_OX cells in 96-well plates. The plates were then incubated at 37° C., in 5% CO2. After 72-96 hr plates were equilibrated to room temperature and cell viability assessed using Promega® CellTiter-Glo® Luminescent Cell Viability Assay according to the manufacturer's recommended protocol. Luminescence was measured on a Molecular Devices® FlexStation® 3 Multi-Mode Microplate Reader and data analyzed using GraphPad Prism 8.0 software. Half maximal inhibitory concentration (1050) is the concentration of drug (topotecan or other chemotherapy cytotoxic agent) where the response (cell growth) is reduced by 50%.

[5] = molecular target: T1, ABCG2; experiment: Flow cytometry binding to 293T cells overexpressing human ABCG2 (293T_ABCG2_OX); design: key to Binding by FACS: binding=“+”; non-significant binding=“−”; conditions: for Binding by FACS: 293T_ABCG2_OX cells; for binding to 293 cells overexpressing human ABCG2 (hG2): FACS, FIG. 1
Summary of the method: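 Antibodies serially diluted (from 100 ug/mL or about 666 nM) and incubated 30 min on ice with 293T cells stably expressing human or cynomolgus ABCG2, in PBS/2% FBS/0.02% azide. Bound antibody detected by PE anti-human IgG F(ab′)2, 20 min on ice, flow cytometry; EC50 = concentration giving half-maximal signal.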

[6] = system: A549 (ATCC, CCL-185); experiment: Xenograft study with NSCLC cell line A549; format: in vivo
[7] = system: Panc1/T300 cells; experiment: Xenograft study with topotecan-resistant Panc1/T300 cells; format: in vivo
Procedure: PANC1 (ATCC, CRL-1469) is a pancreatic ductal epithelial carcinoma cell line. The topotectan-resistant Panc1/T300 cells were developed by continuously incubating PANC1 cells in the culture medium containing increasing concentration of topotecan of 25, 50, 100, 200 and 300 nM. […] The arrows indicate the dosing schedule.

B1: G2.302 mouse: anti-ABCG2 antibody raised in mouse, listed in Table 2 (antibody, V domains shown)
VH: QIQLQQSGPELVRPGASVKISCKASGYTFTDYYINWVKQRPGQGLEWIGWIYPGNVNVKYNEKFKGKATLTVDTSSSTGYMQLRSLTSEDSAVYFCARSIGLRYFDNWGQGTTLTVSS
VL: EKVLTQSPAIMSASLGEKVTMSCRASSSVHYMYWHQQKSDASPRLWIYYTSNLAPGVPARFSGSGSGNFYSLTISSVEDEDGATYYCQQFTTSTWTFGGGTKLEIK
With B1 the “Cynomolgus ABCG2 binding” value [1] was “+”, the “binding to 293 cells overexpressing cynomolgus ABCG2 (cG2)” value [1] was “binds” and the “Block Efflux” value [2] was “−”. The “binding to 293 naïve cells” value [3] was “does not significantly bind”, the Killing [4] was “− (≥75% of IgG control)” and the “Binding by FACS” value [5] was “+”. The “binding to 293 cells overexpressing human ABCG2 (hG2)” value [5] was “binds”.

B2: G2.65 mouse: anti-ABCG2 antibody raised in mouse, listed in Table 2 (antibody, V domains shown)
VH: QGQMHQSGAELVKPGASVKLSCKTSGFTFNSGYISWLKQKPRQSLEWIAWIYAGTGISNFNQKFTGKAQLTVDTSSSTAYMQLSSLTSADSAIYFCASGARKTLDFWGQGTSVTVSS
VL: DIQMTQSSSYLSVSVGGRVTITCKASDQINYWLAWYQQKPGNAPRLLISGATSLETGVPSRFSGSGSGKDYTLSITSFQTEDVATYYCQQYWTTPYTFGGGTKVEIK
In the case of B2, the “Cynomolgus ABCG2 binding” value [1] is reported as “−”, the “binding to 293 cells overexpressing cynomolgus ABCG2 (cG2)” value [1] is reported as “does not significantly bind” and the “Block Efflux” value [2] is reported as “−”. For the same molecule, the “binding to 293 naïve cells” value [3] was “does not significantly bind”, the Killing [4] was “− (≥75% of IgG control)” and the “Binding by FACS” value [5] was “+”. For the same molecule, the “binding to 293 cells overexpressing human ABCG2 (hG2)” value [5] was “binds”.

B3: G2.343 rat: anti-ABCG2 antibody raised in rat (antibody, V domains shown)
VH: SVQLKESGPGLVQPSQTLSLTCTVSGFSLTSNGVSWVRQPPGKGLEWIAAISSGGSTYYNSVLKSRLSISRDTSKSQVFLKMNSLQTEDTAIYFCTRDTYYGYNQIPFVYWGQGTLVTVSS
VL: DVVLAQTPPTLSATIGQSVSISCRSSQSLLHSSGNTYLNWLLQRPGQPPQLLIYLVSRLESRVPNRFSGSGSGTDFTLKISGVEAEDLGVYYCVQSTHAPRTFGGGTKLELK
In the case of B3, the “Cynomolgus ABCG2 binding” value [1] is reported as “+”, the “tumor volume, in combination with topotecan” value [6] is reported as “efficacious in reducing tumor volume; also recorded: particularly efficacious” and the “Block Efflux” value [2] is reported as “+”. The “tumor volume, in combination with topotecan” value [7] was “efficacious in reducing tumor volume” and the “Binding by FACS” value [5] was “+”.
